These results are taken from the nanobody polyreactivity screen of Harvey et al. (2022).

This data set is described as follows: yeast display, Sf9 membrane polyspecificity reagent, FACS + sequencing; frameworks hold sequencing errors. In outline: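 Nanobodies from a synthetic yeast display library (Saccharomyces cerevisiae BJ5465), induced 36–48 hours with galactose, were stained 1 hour at 4 °C with 10% biotinylated, detergent-solubilized Sf9 membrane reagent, enriched on streptavidin microbeads, then FACS-sorted. Anti-HA (expression) and streptavidin (reagent binding) fluorescence set low and high (top ~1%) gates. Polyreactivity labels come from the gate of origin. Genes were colony-PCR amplified, MiSeq 2 × 250 sequenced and filtered by CDR length.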
For the sequence “QVQLVESGGGLVQAGGSLRLSFAASGHTFRYYAMGWYRQAPGKERELVAAITGGGGSTYYADSVKGRFTISRDNAKNTVYFQMNSLKPEDTAVYYCATGGVSGMVGGDYWGQGTQVTVSS”, the “polyreactivity (PSR sort gate)” value is on record as “low polyreactivity”.

For the sequence “QVQLVESGGGLVQAGGSLRLSFAASGITFSSYAMGLYRQAPGKERELVARISTDADTYYADSVKGRFTISRDNAKNTVYLQMNSLKPEDTAVYYCAAEDYWDFDYWGQGTQVTVSS”, the “polyreactivity (PSR sort gate)” value was “low polyreactivity”. Turning to “QVQLVESGGGLVQAGGSLRLSFAASGLNFRVYAMGWYTQAPGTERELVAAISRGGSTYYADSVKGRFTISRDNAKNTVYLQMNSLKPEDTAVYYCAAVFVHRGYYYWGQGTQVTVSS”, the “polyreactivity (PSR sort gate)” value was “high polyreactivity”. To “QVQLVESGGGLVQAGGSLRLSFAASGNTFVSNAMGWYRQAPGKERELVAAISGRGGRTYYADSVKGRFTISRDIAKDTVYLQMNSLKPEDTAVYYCDADQYKDFDYWGQGTLVTVSS” belongs “low polyreactivity”. For “QVQLVESGGGLVQAGGSLRLSFAASGRIFGENAMGWYRQAPGKEREFVAVISISDASTYYADSVKGRFTLSRDNAKNTVYLQMNSLKPEDTAVYYWAADLTDFLYVASDYWGQGTQVTVSS”, the “polyreactivity (PSR sort gate)” value is “low polyreactivity”. On to “QVQLVESGGGLVQAGGSLRLSFAASGRIFGGYGMGWYRQAPGKERELVAAIDADAGSTYYADSVKGRFTISRDNAKNTVYLQLNSLKPEDTAVYYCAPVDQVAVDKHDYWGQGTQVTVSS”, for which the “polyreactivity (PSR sort gate)” value is listed as “low polyreactivity”. To “QVQLVESGGGLVQAGGSLRLSFAASGRIFVRYSMGWYRQAPGKERELVAAISSSGSSTYYADSVKGRFTISRDNAQNTFYLKMNCLKPEDTAVYYCAAASVRYPRYEYWGQGTQVTVSS” belongs “high polyreactivity”; to “QVQLVESGGGLVQAGGSLRLSFAASGRIFYQYAMGWYRQAPGKERELVAAINSYGGRTYYADSVKGRFTISRDNAKYTVYLQMNSLKPEDTAVYYCAKLRVPYYAEYGYWGQGTQVTVSS”, “high polyreactivity”. To “QVQLVESGGGLVQAGGSLRLSFAASGRTFYSYAMGWYRQAPGKETQLVASITSTGSTYYADSVKGRFTISRDNAKNTVYLQMNSLKPEDTAVYYCAARRQPRYSQRSTYYYWGQGTQVTVSS” belongs “high polyreactivity”; to “QVQLVESGGGLVQAGGSLRLSFAASGSIFNYNAMGWYRQAPGKERELVAAITYADSVKGRFTISRDNAKNTVYLQMNSLKPEDTAVYHCNTHYVPSFRFDYWGQGTQVTVSS”, “low polyreactivity”. To “QVQLVESGGGLVQAGGSLRLSFAASGSIFVGYAMGLYRQAPGKERELVAAISWSGDSTYYADSVKGRFTISRDNAKNTVYLQMYSLKPEDTAVPYCAVDPQQVRTLDYYVGYDYWGQGTQVTVSS” belongs “low polyreactivity”; to “QVQLVESGGGLVQAGGSLRLSFAASGSTFSEYALGLYRQAPGKERELVAAITSSSGSTYYADSVKGRFTISRVNAKNTVYLQMNSLKPEDTAVYYCNAYYRTVYYDWGDYEYWGEGTQVTVSS”, “high polyreactivity”; to “QVQLVESGGGLVQAGGSLRLSFAASGSTFSSNAMGWYRQAPGKERELVAAISVNGGSTNYADSVKGRFTISRDNAKNTVYLQMNSLKPEDTAVYYCDAEPDKVAFYRGDYWGQGTQVTVSS”, “low polyreactivity”. Regarding “QVQLVESGGGLVQAGGSLRLSFAASGSTFVIYAMGWYRQAPGTERELVAAISGRTGSTYYADSVKGRFTISRDNAKNTVYLQMNSLKPEDTAVYYCAAYKRSGLKYGHWGQGTQVTVSS”, the “polyreactivity (PSR sort gate)” value was “high polyreactivity”. For the sequence “QVQLVESGGGLVQAGGSLRLSFAASGSTFVYNAMGWYRPAPGKERELVAAITVIGGRTYYADSVKGRFTISRDNAKNTVYLQMNSLKPEDTAVYYCNADATESIGYYDEYEYWGQGTQVTVSS”, the “polyreactivity (PSR sort gate)” value was “low polyreactivity”.

On to “QVQLVESGGGLVQAGGSLRLSFAASGYIFYYNAMGWYRQAPGKERELVAAISRGGNTYYADSVKGRFTISRDNAKNTVYLQMNSLKPEDNAVYYFNARPPNKRYKYGYWGQGTQVTVSS”, for which the “polyreactivity (PSR sort gate)” value is “high polyreactivity”.
